According to the supplement of paper PMC12042874:
± gives the uncertainty stated by the source.

Test: amyloid nucleation score (Sup35N fusion, yeast selection) (log enrichment); library NNK1; higher = more nucleation; inactive = no reads after selection
How it was run: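 Yeast lacking psi expressed peptides of 20 random codons fused to Sup35N, received 100 μM copper sulfate for 24 hours, and were then grown for 7 days at 30°C on medium lacking adenine and uracil. Illumina sequencing of input and output plasmid inserts provided the reads. Nucleation scores are DiMSum log enrichments of output over input, centred on the mode of non-aggregating sequences. Any sequence with under 100 input reads was excluded.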

Substance	amyloid nucleation score
VQGYTYGGCDGFMEWLGKLI	-0.295 ± 0.61
LFKSQFEFFEVGSVEDEFFR	inactive
YGASI	0.136 ± 0.47
LDLGEV	0.025 ± 0.36
SFSGYMLDCGEHTQMYSASI	0.185 ± 0.35
NVNCNRYSWMGDHSCEGRQP	-0.128 ± 0.57
CSTFRVDFFSPCFLL	6.006 ± 0.05
LYIFGAY	-1.26 ± 0.53
LWVSNSSIRLDRNINQTLAT	0.019 ± 1.4
WRLRCLRELV	-0.542 ± 0.65
KAEMFNYLTNHTP	-0.033 ± 1.1
LIFMMDEVMYNGVSCFVRRE	0.136 ± 0.69
SAWKDAYFRVDVNEDFVS	0.154 ± 0.32
RTGLY	0.108 ± 0.33
YACESGMEIMHYRHMSGGVV	0.732 ± 1
TVLNFKAQYRSSPMLAH	0.862 ± 0.39
LVGGCPLTRGRGYGRPRNGG	-1.9 ± 2.7
STFNFTRIASADMSGTSTIW	0.505 ± 0.33
FYASQRSTPHAVFLCNALKV	0.304 ± 0.52
SRGFDHITFF	-0.677 ± 1.2
AKKWNSSMAKCNFNCLKSVW	-2.05 ± 2.7

Substance	amyloid nucleation score
ACNTSSIYALTFVCHLSVGV	4.67 ± 0.057
RDFYNCS	0.166 ± 0.26
VIVCIEAAAETYSTGQSLDA	-0.15 ± 0.3
ALVALRAY	0.364 ± 1.2
QSFSSSMHHDHDNWDQCCES	0.522 ± 0.59
TFIFAGDIT	1.38 ± 0.17
SRIFRKLHYSTWIQMRGLCP	-0.431 ± 0.28
DIYRRSVGGRWLRLFSRRVV	0.209 ± 0.39
IVFVLQGRRQ	0.634 ± 0.88
LVLGAVV	-0.104 ± 0.87
VLGRITAIFSVCGLVAVRDN	5.63 ± 0.076
LHHRSLFDCESNTAGSPRFV	-0.279 ± 0.47
FVYLR	0.98 ± 0.55
NRSWYIRVLHRATSVSLKSF	-0.226 ± 0.39
RRSISWNIRSEDLR	0.85 ± 0.48
PVGVKGVQMVLS	-0.226 ± 0.83
YLWILDMAREDELHATCSGE	-0.558 ± 0.66
SCTLYYTSGSIMYAVMVLQE	0.526 ± 0.49
SCPAGFCCAGANKYHVLGV	-0.137 ± 0.56
HSFMYKENAGMSGTLR	0.187 ± 0.48
LCNPQYM	1.38 ± 0.69

Substance	amyloid nucleation score
NSIVVTT	0.114 ± 0.54
MMLLYCRLIWSPISDRICQF	-0.498 ± 0.42
VGFYWNGWTTKGCWDNSWVL	0.382 ± 0.55
VITNHDDE	0.51 ± 0.47
VGPRGSGPWGGVCLCGCSKE	1.11 ± 0.51
SSLPRYNPR	inactive
YAYYLSDRVCFD	0.303 ± 0.4
INVFREAYIIYCRCEGSGGD	7.507 ± 0.059
RFLRAPGLCSVCSCE	-0.729 ± 0.85
CDVAVVSFFGMADDPVYRVH	1.54 ± 0.48
SFFDLSEA	0.918 ± 1.1
EVGMHNMACADSSVCMRSVL	0.472 ± 0.6
SGMSGCPKCGSWGSNKWYLW	-0.004 ± 0.44
VWIICQHGG	4.09 ± 0.11
FLMKMKMSVFVLEYSILECM	-1.12 ± 1.1
SFLRGMASWLTQMHGKGWGW	0.239 ± 0.69
YKGYYCGSDDFPDSEKPEDG	-0.256 ± 0.32
PSSNLRFFTLNFAFLVPISS	-0.521 ± 0.64
CDIVNKSTGGLSTRALKIVY	0.051 ± 0.69
CIFLM	0.21 ± 0.48
SLRMLCRLPSRKDRSWTDML	0.6 ± 0.32

Substance	amyloid nucleation score
MPTRKTMDGYASIEF	-0.486 ± 0.41
PARATMSSLRPTSNLPFFPA	-0.459 ± 1.1
CNHSTSFVEVVERL	-0.085 ± 0.42
NMGTVMYGVIQACRAHVNVV	0.22 ± 0.45
DITNVAWNMPNTRCEPKPLK	0.444 ± 1.2
RYWYMTGMAMLNK	0.58 ± 0.84
CDINLRKDTGISHLNGLFNA	0.755 ± 0.43
LKASWRAGRATVREKGCKLA	0.505 ± 0.38
VCTCIFRFQFLILCVRVCEL	0.293 ± 0.85
GKRLQ	-0.249 ± 1.2
VMVRTCACFIR	0.883 ± 0.51
RALRGSECGMNRRPLRGCVK	-0.167 ± 0.22
VLCAGLPWYTELVRFSYWAD	-0.642 ± 0.56
AALTCLCCWAFFVISKNNYQ	0.995 ± 0.58
FTFSFLYFFQWCHTGAPARF	0.602 ± 0.73
ATLHGFLLKICLADVLAYLV	0.476 ± 0.42
NTTHDGLRCEIRVWSENRRR	1.39 ± 0.3
CFVMLFDRYVNLLIGNQLWY	0.145 ± 0.35
